Source: article PMC2173515 (The Journal of Cell Biology, 2003)

Tests used:
Test in all cases: co-IP
[1] = target: T1, Vps27 truncated at residue 485 (yeast, UniProt P40343 1-485)
T1 sequence: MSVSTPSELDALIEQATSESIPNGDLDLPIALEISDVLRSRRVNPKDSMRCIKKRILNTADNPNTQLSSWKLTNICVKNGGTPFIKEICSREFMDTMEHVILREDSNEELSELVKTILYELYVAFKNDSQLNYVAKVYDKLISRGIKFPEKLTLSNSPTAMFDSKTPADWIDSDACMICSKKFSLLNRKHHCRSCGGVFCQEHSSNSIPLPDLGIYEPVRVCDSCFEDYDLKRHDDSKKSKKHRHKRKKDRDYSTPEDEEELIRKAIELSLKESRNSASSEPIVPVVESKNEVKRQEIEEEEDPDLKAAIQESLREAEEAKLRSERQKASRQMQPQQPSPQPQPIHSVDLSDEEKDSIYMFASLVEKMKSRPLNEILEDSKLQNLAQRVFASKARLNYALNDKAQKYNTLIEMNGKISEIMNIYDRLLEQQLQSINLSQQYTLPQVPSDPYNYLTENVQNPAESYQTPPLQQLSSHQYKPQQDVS

[2] = target: T2, Vps27 truncated at residue 579 (yeast, UniProt P40343 1-579)
T2 sequence: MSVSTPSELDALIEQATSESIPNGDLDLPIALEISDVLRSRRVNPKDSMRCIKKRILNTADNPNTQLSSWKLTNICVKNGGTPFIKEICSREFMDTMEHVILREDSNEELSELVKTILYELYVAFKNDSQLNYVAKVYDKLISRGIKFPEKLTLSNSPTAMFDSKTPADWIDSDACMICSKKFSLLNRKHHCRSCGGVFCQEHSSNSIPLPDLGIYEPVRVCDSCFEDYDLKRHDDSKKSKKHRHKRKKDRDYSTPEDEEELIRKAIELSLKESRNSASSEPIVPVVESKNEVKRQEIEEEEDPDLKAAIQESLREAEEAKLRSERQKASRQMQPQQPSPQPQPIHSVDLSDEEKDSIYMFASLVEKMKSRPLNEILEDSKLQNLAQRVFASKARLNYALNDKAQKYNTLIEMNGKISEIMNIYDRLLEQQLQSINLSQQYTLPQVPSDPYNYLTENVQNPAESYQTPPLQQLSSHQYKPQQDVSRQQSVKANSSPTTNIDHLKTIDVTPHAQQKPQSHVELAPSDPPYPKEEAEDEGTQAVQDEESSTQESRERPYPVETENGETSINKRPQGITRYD

[3] = target: T3, Vps27 truncated at residue 617 (yeast, UniProt P40343 1-617)
T3 sequence: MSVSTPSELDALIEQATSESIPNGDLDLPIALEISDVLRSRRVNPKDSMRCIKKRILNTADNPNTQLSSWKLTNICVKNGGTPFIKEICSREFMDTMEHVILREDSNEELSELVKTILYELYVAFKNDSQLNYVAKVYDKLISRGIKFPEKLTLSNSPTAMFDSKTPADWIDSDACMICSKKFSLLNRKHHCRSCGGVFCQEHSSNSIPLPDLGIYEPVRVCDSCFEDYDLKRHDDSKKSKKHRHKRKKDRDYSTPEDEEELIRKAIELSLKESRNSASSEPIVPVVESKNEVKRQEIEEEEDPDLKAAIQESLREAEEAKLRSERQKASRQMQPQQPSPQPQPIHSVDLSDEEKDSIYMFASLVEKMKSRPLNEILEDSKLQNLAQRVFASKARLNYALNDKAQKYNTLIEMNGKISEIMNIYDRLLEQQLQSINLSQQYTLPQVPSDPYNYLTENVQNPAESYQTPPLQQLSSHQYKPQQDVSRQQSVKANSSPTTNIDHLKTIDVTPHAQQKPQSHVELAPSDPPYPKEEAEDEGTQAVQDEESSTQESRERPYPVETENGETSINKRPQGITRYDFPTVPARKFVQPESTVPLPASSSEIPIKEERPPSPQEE

[4] = target: T4, Vps27 truncated at residue 524 (yeast, UniProt P40343 1-524)
T4 sequence: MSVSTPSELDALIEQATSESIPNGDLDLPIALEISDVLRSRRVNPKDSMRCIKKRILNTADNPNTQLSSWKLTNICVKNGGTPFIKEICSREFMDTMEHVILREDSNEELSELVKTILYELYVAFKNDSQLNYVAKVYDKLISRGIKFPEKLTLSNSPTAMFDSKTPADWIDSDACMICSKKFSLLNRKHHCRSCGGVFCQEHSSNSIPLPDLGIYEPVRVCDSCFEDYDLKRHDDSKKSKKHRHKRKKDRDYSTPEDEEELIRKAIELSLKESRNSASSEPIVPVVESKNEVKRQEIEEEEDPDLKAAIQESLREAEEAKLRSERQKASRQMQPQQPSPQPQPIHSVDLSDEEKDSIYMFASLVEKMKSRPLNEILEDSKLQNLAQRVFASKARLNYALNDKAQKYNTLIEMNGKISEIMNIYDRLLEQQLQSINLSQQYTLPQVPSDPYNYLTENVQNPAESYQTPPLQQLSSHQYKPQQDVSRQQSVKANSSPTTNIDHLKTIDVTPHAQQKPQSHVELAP

[5] = target: T5, Vps27 (full-length, wild type) (yeast, UniProt P40343 1-622)
T5 sequence: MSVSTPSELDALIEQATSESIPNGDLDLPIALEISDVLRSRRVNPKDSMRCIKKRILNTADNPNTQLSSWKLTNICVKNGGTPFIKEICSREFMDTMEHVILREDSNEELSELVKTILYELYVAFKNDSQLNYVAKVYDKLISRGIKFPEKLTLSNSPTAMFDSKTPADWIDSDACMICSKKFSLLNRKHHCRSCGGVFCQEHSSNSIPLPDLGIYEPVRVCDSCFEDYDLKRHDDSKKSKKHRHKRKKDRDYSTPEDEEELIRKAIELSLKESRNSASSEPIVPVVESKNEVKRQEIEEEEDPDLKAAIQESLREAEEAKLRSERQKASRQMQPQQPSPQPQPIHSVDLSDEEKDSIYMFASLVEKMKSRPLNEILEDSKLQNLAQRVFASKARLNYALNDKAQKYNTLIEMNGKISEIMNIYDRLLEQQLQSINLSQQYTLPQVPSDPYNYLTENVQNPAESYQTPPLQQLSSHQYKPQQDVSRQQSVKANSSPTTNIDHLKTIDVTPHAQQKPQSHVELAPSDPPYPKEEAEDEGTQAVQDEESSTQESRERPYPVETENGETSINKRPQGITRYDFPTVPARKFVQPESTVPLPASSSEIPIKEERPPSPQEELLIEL

Measured: percent of Vps23 co-immunoprecipitated

B1: Vps23-HA (natural protein)
chain: MSANGKISVPEAVVNWLFKVIQPIYNDGRTTFHDSLALLDNFHSLRPRTRVFTHSDGTPQLLLSIYGTISTGEDGSSPHSIPVIMWVPSMYPVKPPFISINLENFDMNTISSSLPIQEYIDSNGWIALPILHCWDPAAMNLIMVVQELMSLLHEPPQDQAPSLPPKPNTQLQQEQNTPPLPPKPKSPHLKPPLPPPPPPQPASNALDLMDMDNTDISPTNHHEMLQNLQTVVNELYREDVDYVADKILTRQTVMQESIARFHEIIAIDKNHLRAVEQAIEQTMHSLNAQIDVLTANRAKVQQFSSTSHVDDEDVNSIAVAKTDGLNQLYNLVAQDYALTDTIECLSRMLHRGTIPLDTFVKQGRELARQQFLVRWHIQRITSPLS
~10%: all assays above
